Assay results: the supplement of paper PMC10724198
± gives the standard deviation of the averaged measurements.

Legend:
Saccharomyces cerevisiae [1] = assay: protein stability index of tFT-peptide fusion (C-terminal peptide) (PSI (0-1 scale)); higher = more stable (slower turnover)
Experimental: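 MPS profiling in S. cerevisiae of the tFT-X12 degron library: putative degron peptides plus stable controls, 12 aa, fused to the C-terminus of a sfGFP-mCherry timer. Cells are FACS-sorted into 8 mCherry/sfGFP bins and deep-sequenced. PSI runs from 0 (unstable) to 1 (stable). Backgrounds are wild type, das1Δ and doa10Δ at 30 °C, and wild type, das1Δ, cdc34-1 and cdc53-1 at 37 °C; 2-3 technical replicates each.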

Saccharomyces cerevisiae [2] = assay: as above; details: genetic background: wild type; temperature: 30 C
[3] = genetic background: cdc34-1, temperature: 37 C
[4] = genetic background: cdc53-1, temperature: 37 C
[5] = genetic background: das1 deletion, temperature: 30 C
[6] = genetic background: das1 deletion, temperature: 37 C
[7] = genetic background: doa10 deletion, temperature: 30 C
[8] = genetic background: wild type, temperature: 30 C
[9] = genetic background: wild type, temperature: 37 C
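Also: PSI is a weighted mean of sequencing reads over stability bins, variants kept only with over 10 reads, mCherry proximal and sfGFP distal, peptide attached via GGGS linker.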

| Sequence | protein stability index (Saccharomyces cerevisiae [1]; [3]) | protein stability index (Saccharomyces cerevisiae [1]; [4]) | protein stability index (Saccharomyces cerevisiae [1]; [5]) | protein stability index (Saccharomyces cerevisiae [1]; [6]) | protein stability index (Saccharomyces cerevisiae [1]; [7]) | protein stability index (Saccharomyces cerevisiae [1]; [8]) | protein stability index (Saccharomyces cerevisiae [1]; [9]) | protein stability index (Saccharomyces cerevisiae [2]) |
| --- | --- | --- | --- | --- | --- | --- | --- | --- |
| VFVMRDGFLRKV | 0.63323 ± 0.00049 | 0.7055 ± 0.004 | 0.636 ± 0.022 | 0.748 ± 0.025 | 0.301 ± 0.013 | 0.341 ± 0.015 | 0.4507 ± 0.0016 | 0.374 ± 0.044 |
| VACTCILVALVV | 0.059 ± 0.0069 | 0.164 ± 0.02 | 0.0772 ± 0.027 | 0.198 ± 0.0045 | 0.0424 ± 0.0038 | 0.0686 ± 0.035 | 0.165 ± 0.005 | 0.142 ± 0.035 |
| FYLFPSLPLLLL | 0.424 ± 0.018 | 0.432 ± 0.022 | 0.422 ± 0.018 | 0.544 ± 0.03 | 0.477 ± 0.023 | 0.339 ± 0.03 | 0.46 ± 0.0072 | 0.452 ± 0.044 |
| RLIAVAGVVVVA | 0.541 ± 0.032 | 0.5509 ± 0.0042 | 0.425 ± 0.025 | 0.5685 ± 0.0055 | 0.3997 ± 0.00095 | 0.431 ± 0.021 | 0.547 ± 0.0055 | 0.477 ± 0.054 |
| GVCLGFICVGFC | 0.494 ± 0.028 | 0.55 ± 0.0067 | 0.359 ± 0.031 | 0.576 ± 0.032 | 0.343 ± 0.029 | 0.362 ± 0.026 | 0.522 ± 0.0075 | 0.444 ± 0.018 |
| SFFYFVFYYLSF | 0.161 ± 0.042 | 0.17 ± 0.019 | 0.259 ± 0.015 | 0.364 ± 0.017 | 0.253 ± 0.016 | 0.204 ± 0.033 | 0.308 ± 0.01 | 0.2916 ± 0.0027 |
| SFLRVRSLISCS | 0.252 ± 0.026 | 0.257 ± 0.035 | 0.223 ± 0.025 | 0.404 ± 0.021 | 0.168 ± 0.0032 | 0.204 ± 0.026 | 0.348 ± 0.013 | 0.294 ± 0.022 |
| LCVVFCIRTYRV | 0.249 ± 0.027 | 0.437 ± 0.079 | 0.259 ± 0.038 | 0.476 ± 0.044 | 0.247 ± 0.031 | 0.251 ± 0.042 | 0.471 ± 0.027 | 0.335 ± 0.053 |
| KFFRSWVLTSPA | 0.585 ± 0.06 | 0.607 ± 0.015 | 0.427 ± 0.032 | 0.6157 ± 0.0025 | 0.41 ± 0.021 | 0.444 ± 0.018 | 0.609 ± 0.021 | 0.494 ± 0.057 |
| TGPLVHLLCCCV | 0.354 ± 0.011 | 0.417 ± 0.011 | 0.313 ± 0.028 | 0.3955 ± 0.0013 | 0.284 ± 0.0075 | 0.315 ± 0.019 | 0.386 ± 0.0074 | 0.421 ± 0.011 |
| GLLAFVCISHTS | 0.497 ± 0.044 | 0.542 ± 0.0086 | 0.378 ± 0.033 | 0.575 ± 0.019 | 0.312 ± 0.0026 | 0.344 ± 0.026 | 0.5396 ± 0.0015 | 0.458 ± 0.039 |
| RKWLFFRSWRYV | 0.476 ± 0.047 | 0.69 ± 0.012 | 0.626 ± 0.028 | 0.7486 ± 0.0024 | 0.0555 ± 0.024 | 0.0663 ± 0.011 | 0.0912 ± 0.024 | 0.134 ± 0.002 |
| FSFSFWALLWFP | 0.495 ± 0.029 | 0.54 ± 0.017 | 0.438 ± 0.022 | 0.531 ± 0.0093 | 0.48 ± 0.031 | 0.429 ± 0.02 | 0.537 ± 0.02 | 0.466 ± 0.0093 |
| FVGLFEYILLFV | 0.186 ± 0.009 | 0.167 ± 0.029 | 0.201 ± 0.028 | 0.358 ± 0.0079 | 0.263 ± 0.0056 | 0.201 ± 0.028 | 0.348 ± 0.0072 | 0.29 ± 0.036 |
| GWSRRFFCLFIV | 0.203 ± 0.052 | 0.303 ± 0.0019 | 0.345 ± 0.041 | 0.4984 ± 0.0011 | 0.0815 ± 0.015 | 0.0745 ± 0.024 | 0.0793 ± 0.006 | 0.137 ± 0.002 |
| IACVLSIFLNAA | 0.325 ± 0.0071 | 0.435 ± 0.051 | 0.292 ± 0.039 | 0.435 ± 0.0047 | 0.2559 ± 0.0013 | 0.274 ± 0.031 | 0.436 ± 0.0094 | 0.44 ± 0.054 |
| TSFSSGEALGVG | 0.437 ± 0.0066 | 0.503 ± 0.021 | 0.442 ± 0.0075 | 0.5 ± 0.0091 | 0.4553 ± 0.0011 | 0.445 ± 0.013 | 0.48763 ± 3.8e-05 | 0.483 ± 0.01 |
| NFSLFVHFLGLC | 0.668 ± 0.047 | 0.703 ± 0.024 | 0.606 ± 0.021 | 0.687 ± 0.027 | 0.361 ± 0.0091 | 0.399 ± 0.023 | 0.608 ± 0.025 | 0.445 ± 0.052 |
| RWVFAGVGLFVG | 0.691 ± 0.071 | 0.732 ± 0.016 | 0.605 ± 0.0071 | 0.7241 ± 0.0046 | 0.353 ± 0.043 | 0.376 ± 0.025 | 0.598 ± 0.024 | 0.502 ± 0.028 |
